This is an account of results in PMC3188589, “Structural and Biochemical Studies of Human 4-hydroxy-2-oxoglutarate Aldolase: Implications for Hydroxyproline Metabolism in Primary Hyperoxaluria” (PLoS ONE, 2011).

Where a chain is given by its changes, count along the chain named. In names and notes the source's numbering stands. Several values for one entry are separate records, joined by “and”; a condition that tells them apart may be missing. Equal values may be shown once.

One series addresses T1, human HOGA (hHOGA) (Homo sapiens, UniProt Q86XE5).
T1 construct: gene HOGA1; His-tag (WT, Y140F) cleavable by PreScission leaving GPH, 33,097 Da tag-free; S77, N78 and S198 mutants as MBP fusion, MBP cleaved; tetramer
T1 sequence (Q86XE5 26-327): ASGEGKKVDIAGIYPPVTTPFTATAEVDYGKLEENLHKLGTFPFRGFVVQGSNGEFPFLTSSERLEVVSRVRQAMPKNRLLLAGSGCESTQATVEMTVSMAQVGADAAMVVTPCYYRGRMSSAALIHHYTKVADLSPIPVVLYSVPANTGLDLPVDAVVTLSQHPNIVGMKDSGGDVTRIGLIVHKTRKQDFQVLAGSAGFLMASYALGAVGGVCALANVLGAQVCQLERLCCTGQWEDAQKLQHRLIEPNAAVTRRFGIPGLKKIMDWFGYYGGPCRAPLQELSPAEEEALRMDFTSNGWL
As to the kind of experiment: X-ray crystal structure, […] Å. The conditions noted are these: covalent Schiff base with Lys196; 10 mM sodium pyruvate in crystallization, pH 7.5, 20°C. The series is classed as binding.

The target of another series is T2, bovine HOGA (bHOGA) (Bos taurus, UniProt Q0P5I5).
T2 construct: gene HOGA1; native mature enzyme purified from kidney cortex mitochondria, begins at residue 26, 35,217 Da printed, no tag
T2 sequence (Q0P5I5 26-327): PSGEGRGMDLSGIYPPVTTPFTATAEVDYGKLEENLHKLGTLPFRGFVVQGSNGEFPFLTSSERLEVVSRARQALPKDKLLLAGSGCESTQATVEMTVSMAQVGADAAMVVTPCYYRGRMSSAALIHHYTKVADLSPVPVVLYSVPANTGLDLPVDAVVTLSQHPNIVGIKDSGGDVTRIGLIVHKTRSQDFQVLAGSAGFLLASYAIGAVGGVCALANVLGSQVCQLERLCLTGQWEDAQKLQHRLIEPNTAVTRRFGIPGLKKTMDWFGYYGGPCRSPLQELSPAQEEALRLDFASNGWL
Nature of the series: phenylhydrazine assay of glyoxylate formation. The class given is biochemical. The conditions noted are these: racemic HOG; native enzyme from kidney mitochondria.

Substrate in the series “purified protein”: O=C(O)C(=O)CC(O)C(=O)O
Nature of the series: purified protein. The class given is biochemical, Homo sapiens. The note with it: racemic HOG, 100 mM TRIS pH 8.5, 37°C, aldol cleavage.

Series [1] concerns the molecule itself. As to the kind of experiment: AUC; sedimentation equilibrium; His-tag free hHOGA at 0.43, 0.82, 1.25 mg/ml and a replicate at 0.45, 0.78, 1.14 mg/ml, two rotor speeds; 20 mM HEPES pH 7.5, 100 mM NaCl; fit to a dimer-tetramer model (HETEROANALYSIS, SEDPHAT); tetramer to dimers.
Series [2] concerns the molecule itself. As to the kind of experiment: crystal structure; apoenzyme (2.5 A) and pyruvate-Schiff base complex (1.97 A), space group P6(4)22, one molecule in the asymmetric unit; the tetramer is generated by crystallographic symmetry.

On to `CC(=O)C(=O)O` [pyruvate], for which the “X-ray crystal structure, 1.97 Å” value at human HOGA (hHOGA) is on record as “clear continuous electron density for the imine Schiff base adduct between the ε-amino group of”.

As for `O=C(O)C(=O)CC(O)C(=O)O` (racemic) [HOG], at bovine HOGA (bHOGA), the “phenylhydrazine assay of glyoxylate formation” value was “production of glyoxylate from HOG synthesized in-house”.

B1: human HOGA (hHOGA) (Homo sapiens; Y140F) (protein)
chain: T1 sequence (Q86XE5 26-327) with Y115F
notes: His-tag (WT, Y140F) cleavable by PreScission leaving GPH, 33,097 Da tag-free; S77, N78 and S198 mutants as MBP fusion, MBP cleaved; tetramer
For B1, in “purified protein”, the Km (usually the concentration of substrate that gives half-maximal velocity) amounted to 8 ± 1 µM; the kcat (as a rule, the maximal rate divided by the concentration of active sites) turned out to be 5.2 ± 0.1 s⁻¹; the kcat/Km (commonly the turnover number divided by the Michaelis constant) came out at 650000 ± 81000 M⁻¹ s⁻¹.

B2: human HOGA (hHOGA) (Homo sapiens; N78Q) (protein)
chain: T1 sequence (Q86XE5 26-327) with N53Q
notes: as for B1
B2: in “purified protein”, the Km turned out to be 281 ± 14 µM, the kcat amounted to 6.2 ± 0.1 s⁻¹ and the specificity constant (kcat/Km) came out at 22000 ± 1000 M⁻¹ s⁻¹.

B3: human HOGA (hHOGA) (Homo sapiens; S77T) (protein)
chain: T1 sequence (Q86XE5 26-327) with S52T
notes: as for B1
Turning to B3, in the series “purified protein”, the Km was 58 ± 8 µM, the kcat was determined as 0.8 ± 0.1 s⁻¹ and the kcat/Km was 14000 ± 2000 M⁻¹ s⁻¹.

B4: human HOGA (hHOGA) (Homo sapiens; S198T) (protein)
chain: T1 sequence (Q86XE5 26-327) with S173T
notes: as for B1
As to B4, in the series “purified protein”, the Km is 77 ± 5 µM, the kcat was 7.8 ± 0.1 s⁻¹ and the kcat/Km was 101000 ± 7000 M⁻¹ s⁻¹.

B5: human HOGA (hHOGA) (Homo sapiens) (protein)
chain: T1 sequence (Q86XE5 26-327)
notes: as for B1
With B5, in “purified protein”, the Km was 11 ± 1 µM, the kcat was 6.1 ± 0.1 s⁻¹ and the kcat/Km stood at 555000 ± 50000 M⁻¹ s⁻¹.

B6: human HOGA (hHOGA) (Homo sapiens; S198A) (protein)
chain: T1 sequence (Q86XE5 26-327) with S173A
notes: as for B1
B6: in “purified protein”, the Km came to 44 ± 2 µM, the turnover number (kcat) worked out at 2.4 ± 0.1 s⁻¹ and the kcat/Km is 55000 ± 3000 M⁻¹ s⁻¹.

B7: human HOGA (hHOGA) (Homo sapiens; N78A) (protein)
chain: T1 sequence (Q86XE5 26-327) with N53A
notes: as for B1
As for B7, in the series “purified protein”, the Km turned out to be 66 ± 4 µM, the kcat was found to be 7.6 ± 0.1 s⁻¹ and the kcat/Km was 115000 ± 7000 M⁻¹ s⁻¹.

B8: human HOGA (hHOGA) (Homo sapiens; S77V) (protein)
chain: T1 sequence (Q86XE5 26-327) with S52V
notes: as for B1
Turning to B8, in the series “purified protein”, the Km was determined as 82 ± 7 µM, the kcat came out at 1.2 ± 0.1 s⁻¹ and the kcat/Km is 15000 ± 1000 M⁻¹ s⁻¹.

B9: human HOGA (hHOGA) (Homo sapiens; S77A) (protein)
chain: T1 sequence (Q86XE5 26-327) with S52A
notes: as for B1
With B9, in “purified protein”, the Km came out at 84 ± 5 µM, the kcat came to 2.5 ± 0.1 s⁻¹ and the kcat/Km was 30000 ± 2000 M⁻¹ s⁻¹.

B10: human HOGA (hHOGA) (Homo sapiens; N78T) (protein)
chain: T1 sequence (Q86XE5 26-327) with N53T
notes: as for B1
Consider B10, for which, in “purified protein”, the Km is 16 ± 1 µM, the kcat came out at 4 ± 0.1 s⁻¹ and the kcat/Km was determined as 250000 ± 16000 M⁻¹ s⁻¹.

B11: human 4-hydroxy-2-oxoglutarate aldolase (hHOGA), His-tag free (enzyme)
chain: GPHASGEGKKVDIAGIYPPVTTPFTATAEVDYGKLEENLHKLGTFPFRGFVVQGSNGEFPFLTSSERLEVVSRVRQAMPKNRLLLAGSGCESTQATVEMTVSMAQVGADAAMVVTPCYYRGRMSSAALIHHYTKVADLSPIPVVLYSVPANTGLDLPVDAVVTLSQHPNIVGMKDSGGDVTRIGLIVHKTRKQDFQVLAGSAGFLMASYALGAVGGVCALANVLGAQVCQLERLCCTGQWEDAQKLQHRLIEPNAAVTRRFGIPGLKKIMDWFGYYGGPCRAPLQELSPAEEEALRMDFTSNGWL
notes: three additional N-terminal residues left from the PreScission Protease recognition site after removal of the His-tag; the protein starts at residue 26; 302 residues in the mature form; Tetramer (dimer of dimers) in the crystal; dimer-tetramer equilibrium in solution; also called human HOGA; HOGA1; source: E. coli BL21*(DE3), purified (Ni-NTA, Q-Sepharose HP, Superdex 200); His-tag removed with …
Take B11: the Kd (as a rule, the constant that tells how readily two partners part at equilibrium) in series [1] is ~60 µM and 58 to 63 µM. In addition, the stoichiometry N (usually the number of molecules, sites or subunits per partner or assembly) in series [2] is 4.
